Assay results from patent US20250353908A1 (ARCELLX, published 2025).

T1: CS1-Fc (human, UniProt Q9NQ25 23-226)
T1 construct: also called recombinant human CS1-Fc; CS1-Fc polypeptide; not shown: Fc portion of CS1-Fc
T1 sequence: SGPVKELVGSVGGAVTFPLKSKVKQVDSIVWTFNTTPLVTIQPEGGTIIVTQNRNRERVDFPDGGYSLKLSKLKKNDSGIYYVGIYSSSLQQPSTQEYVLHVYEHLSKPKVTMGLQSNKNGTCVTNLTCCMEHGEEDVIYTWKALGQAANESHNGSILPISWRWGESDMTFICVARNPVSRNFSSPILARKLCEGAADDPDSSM

B1: SEQ ID NO 80 (designed binder)
chain: MGSWTEFWYRLSAIDLRLEALGGSEAELAAFEKEIAAFESELQAYKGKGNPEVEELRDYAAYIRAELQAYRHN
B2: SEQ ID NO 74 (designed binder)
chain: MGSWSEFWMRLTAIDMRLAALGGSEAELAAFEKEIAAFESELQAYKGKGNPEVEELRDYAAVIRESLQAYRHN
B3: SEQ ID NO 79 (designed binder)
chain: MGSWSEFWTRLAAIDMRLNALGGSEAELAAFEKEIAAFESELQAYKGKGNPEVEDLRDYAAQIREELQAYRHN
B4: SEQ ID NO 81 (designed binder)
chain: MGSWSEFWIRLAAIELRLSALGGSEAELAAFEKEIAAFESELQAYKGKGNPEVEELRDYAAIIRRELQAYRHN
B5: SEQ ID NO 66 (designed binder)
chain: MGSWAEFWSRLSAIDERLGALGGSEAELAAFEKEIAAFESELQAYKGKGNPEVEELREYAAEIRRVLQAYRHN
B6: SEQ ID NO 73 (designed binder)
chain: MGSWSEFWHRLSAIDHRLGALGGSEAELAAFEKEIAAFESELQAYKGKGNPEVEELRAYAAEIRRNLQAYRHN
B7: SEQ ID NO 78 (designed binder)
chain: MGSWAEFWFRLAAIQMRLYALGGSEAELAAFEKEIAAFESELQAYKGKGNPEVEDLRDYAAHIRQELQAYRHN
B8: SEQ ID NO 69 (designed binder)
chain: MGSWYEFWSRLSAIHVRLEALGGSEAELAAFEKEIAAFESELQAYKGKGNPEVEDLRAYAAFIRSELQAYRHN
B9: SEQ ID NO 77 (designed binder)
chain: MGSWSEFWFRLLAIEQRLEALGGSEAELAAFEKEIAAFESELQAYKGKGNPEVEDLRDYAALIREMLQAYRHN
B10: SEQ ID NO 82 (designed binder)
chain: MGSWSEFWNRLIAIDYRLLALGGSEAELAAFEKEIAAFESELQAYKGKGNPEVEELRDYAAHIRWNLQAYRHN
B11: SEQ ID NO 70 (designed binder)
chain: MGSWMEFWHRLTAIDSRLEALGGSEAELAAFEKEIAAFESELQAYKGKGNPEVEDLRQYAASIRKSLQAYRHN
B12: SEQ ID NO 71 (designed binder)
chain: MGSWSEFWHRLSAIDARLEALGGSEAELAAFEKEIAAFESELQAYKGKGNPEVEDLRAYAAMIRNVLQAYRHN
B13: SEQ ID NO 83 (designed binder)
chain: MGSWTEFWARLTAIDLRLIALGGSEAELAAFEKEIAAFESELQAYKGKGNPEVEELRDYAAFIRANLQAYRHN
B14: SEQ ID NO 87 (designed binder)
chain: MGSWTEFHNRLWAIYDRLDALGGSEAELAAFEKEIAAFESELQAYKGKGNPEVETLRHHAAGIRRSLQAYRHN
B15: CS1DD023 (designed binder)
chain: MGSWVEFYDRLEAIWQRLEALGGSEAELAAFEKEIAAFESELQAYKGKGNPEVEKLRRHAAGIRMRLQAYRHN
B16: SEQ ID NO 86 (designed binder)
chain: MGSWIEFQTRLEAIYQRLDALGGSEAELAAFEKEIAAFESELQAYKGKGNPEVETLRWHAAGIRQYLQAYRHN
B17: SEQ ID NO 76 (designed binder)
chain: MGSWEEFQNRLGAIWDRLEALGGSEAELAAFEKEIAAFESELQAYKGKGNPEVESLRWHAAGIRTRLQAYRHN
B18: SEQ ID NO 88 (designed binder)
chain: MGSWEEFYVRLDAIWERLEALGGSEAELAAFEKEIAAFESELQAYKGKGNPEVEGLRWHAAGIRERLQAYRHN
B19: SEQ ID NO 84 (designed binder)
chain: MGSWIEFGWRLQAIEERLRALGGSEAELAAFEKEIAAFESELQAYKGKGNPEVEVLREWAAEIRWQLQAYRHN
B20: SEQ ID NO 72 (designed binder)
chain: MGSWYEFWHRLTAIEQRLWALGGSEAELAAFEKEIAAFESELQAYKGKGNPEVEDLRSYAAEIRWRLQAYRHN
B21: SEQ ID NO 68 (designed binder)
chain: MGSWYEFWTRLTAIQMRLDALGGSEAELAAFEKEIAAFESELQAYKGKGNPEVEDLRAFAAQIRTHLQAYRHN
B22: SEQ ID NO 75 (designed binder)
chain: MGSWHEFWTRLTAIQMRLDALGGSEAELAAFEKEIAAFESELQAYKGKGNPEVEDLRAFAAQIRTHLQAYRHN
B23: CS1DD006-P26(Q26) Adapter (designed binder)
chain: MGSWAEFFTRLDAIWERLEGLGGSEAELAAFEKEIAAFESELQAYKGKGYPEVETLKFHAAGIRQKLQAYRHNGGGGDGGGGSGGGGSGQESQALAKRSCGLFQKLGEYYLQNAFLVAYTKKAPQLTSSELMAITRKMAATAATCCQLSEDKLLACGEGAADIIIGHLCIRHEMTPVNPGVGQCCTSSYANRRPCFSSLVVDETYVPPAFSDDKFIFHKDLCQAQGVALQTMKQEFLINLVKQKPQITEEQLEAVIADFSGLLEKCCQGQEQEVCFAEEGQKLISKTRAALGV
notes: Monovalent Adapter: CS1DD006 D domain, GS linker, AFP p26 (Q26); The SPR sentence names only the format DD-GS linker-Q26; also called monovalent CS1DD006-P26(Q26); CS1DD006 adapter protein of the format DD-GS linker-Q26
B24: CS1DD007 adapter protein of the format DD-GS linker-Q26 (designed binder)
chain: MGSWAEFFTRLDAIWERLEGLGGSEAELAALEKEIAAFESELQAYKGKGYPEVETLKFHAAGIRQKLQAYRHN
B25: CS1DD018 adapter protein of the format DD-GS linker-Q26 (designed binder)
chain: MGSWDEFNQRLGAFEERLQALGGSEAELAAFEKEIAAFESELQAYKGKGNPEVEFLRWYADGIRWELQAYRHNGGGGDGGGGSGGGGSGQESQALAKRSCGLFQKLGEYYLQNAFLVAYTKKAPQLTSSELMAITRKMAATAATCCQLSEDKLLACGEGAADIIIGHLCIRHEMTPVNPGVGQCCTSSYANRRPCFSSLVVDETYVPPAFSDDKFIFHKDLCQAQGVALQTMKQEFLINLVKQKPQITEEQLEAVIADFSGLLEKCCQGQEQEVCFAEEGQKLISKTRAALGV
B26: CS1DD020-P26(Q26) Adapter (designed binder)
chain: MGSWDEFNQRLGAIEERLQALGGSEAELAALEKEIAAFESELQAYKGKGNPEVEFLRWYADGIRWELQAYRHNGGGGDGGGGSGGGGSGQESQALAKRSCGLFQKLGEYYLQNAFLVAYTKKAPQLTSSELMAITRKMAATAATCCQLSEDKLLACGEGAADIIIGHLCIRHEMTPVNPGVGQCCTSSYANRRPCFSSLVVDETYVPPAFSDDKFIFHKDLCQAQGVALQTMKQEFLINLVKQKPQITEEQLEAVIADFSGLLEKCCQGQEQEVCFAEEGQKLISKTRAALGV
notes: Monovalent Adapter: CS1DD020 D domain, GS linker, AFP p26 (Q26); The SPR sentence names only the format DD-GS linker-Q26; also called monovalent CS1DD020-P26(Q26); C1DD020 adapter protein of the format DD-GS linker-Q26
B27: CS1DD008 (designed binder)
chain: MGSWDEFNQRLGAIEERLQALGGSEAELAAFEKEIAAFESELQAYKGKGNPEVEFLRWYAAGIRWELQAYRHN
B28: SEQ ID NO 85 (designed binder)
chain: MGSWNEFNERLGAINHRLRALGGSEAELAAFEKEIAAFESELQAYKGKGNPEVEVLREGAAWIRAELQAYRHN
B29: SEQ ID NO 62 (designed binder)
chain: MGSWHFFKARLAYIKQGLEALGGSEAELALFEEFIAEFESDLQQYKGKGNPEVEALRKEAAAIRDELQAYRHN
B30: SEQ ID NO 65 (designed binder)
chain: MGSWVEFEWRLYAIAGRLEALGGSEAELAAFEKEIAAFESELQAYKGKGNPEVEYLRQGAARIRATLQAYRHN
B31: SEQ ID NO 89 (designed binder)
chain: MGSWSEFNSRLDAIFDRLFALGGSEAELAAFEKEIAAFESELQAYKGKGNPEVEELRSHAANIRASLQAYRHN
B32: SEQ ID NO 90 (designed binder)
chain: MGSWSEFWIRLDAIRERLWALGGSEAELAAFEKEIAAFESELQAYKGKGNPEVEELRYFAANIRQQLQAYRHN

Legend:
CS1-Fc [1] = target: T1, CS1-Fc; test: phage ELISA, CS1-Fc captured on anti-human IgG1-Fc, anti-M13-HRP, A450 target / A450 IgG1-Fc
Protocol: To identify new CS1-specific D domains, a D domain phage library described in Intl. Appl. Pub. No. WO 2016164305 and U.S. Pat. No. 10,662,248 was screened with a CS1-Fc polypeptide following standard protocols. Individual colonies containing phagemid from the CS1 panning output were picked and phage were rescued. To assay target binding by ELISA, 96-well plates were coated with anti-human IgG1-Fc antibody followed by incubation with CS1-Fc or IgG1-Fc. Rescued phage diluted in ELISA blocking buffer was then added to each well. Binding was detected using an HRP-conjugated anti-M13 antibody and the ELISA ratio for each DD sequence was determined as the absorbance at 450 nm for target (i.e., CS1-Fc) divided by that for IgG1-Fc averaged across all screened wells containing that clone.

CS1-Fc [2] = target: T1, CS1-Fc; test: SPR (Biacore), adapter protein DD-GS linker-Q26, CS1-Fc target
Text: One or more of the above discussed methods were used to identify the SEQ ID NO: 41-47, 49-61, 91-93 and 96-106 variant CS1 specific D domains. […] In addition to binding human CS1, the CS1DD03, CSDD006 and CS1DD007 D domains are cross-reactive with cyno/rhesus CS1.

Row | Binder | ELISA score (ratio of phage binding to CS1-Fc vs IgG-Fc) (CS1-Fc [1]) | Kd (CS1-Fc [2])
1 | B1 | 17.8 ratio | –
2 | B2 | 18.3 ratio | –
3 | B3 | 18.7 ratio | –
4 | B4 | 13.8 ratio | –
5 | B5 | 18 ratio | –
6 | B6 | 18.7 ratio | –
7 | B7 | 17.7 ratio | –
8 | B8 | 16.9 ratio | –
9 | B9 | 17.8 ratio | –
10 | B10 | 16.3 ratio | –
11 | B11 | 10.5 ratio | –
12 | B12 | 14 ratio | –
13 | B13 | 13.4 ratio | –
14 | B14 | 14.7 ratio | –
15 | B15 | 18.8 ratio | –
16 | B16 | 6.03 ratio | –

Row | Binder | ELISA score (ratio of phage binding to CS1-Fc vs IgG-Fc) (CS1-Fc [1]) | Kd (CS1-Fc [2])
17 | B17 | 16.6 ratio | –
18 | B18 | 13.5 ratio | –
19 | B19 | 16.3 ratio | –
20 | B20 | 8.75 ratio | –
21 | B21 | 13.1 ratio | –
22 | B22 | 16 ratio | –
23 | B23 | – | 38 nM
24 | B24 | – | 23 nM
25 | B25 | – | 40 nM
26 | B26 | – | 18 nM
27 | B27 | 19.2 ratio | –
28 | B28 | 18.6 ratio | –
29 | B29 | 13.5 ratio | –
30 | B30 | 15.7 ratio | –
31 | B31 | 19.6 ratio | –
32 | B32 | 16.3 ratio | –
